Source: patent US20040157774A1 (published 2004)

Molecular target: T1, Axl-Fc (R&D Systems) (UniProt P30530-2 26-440, limits assumed)
T1 construct: Bought reagent (R&D Systems, Minneapolis); also called Axl-Fc receptor; not shown: Fc part of the bought fusion
T1 sequence (looked up): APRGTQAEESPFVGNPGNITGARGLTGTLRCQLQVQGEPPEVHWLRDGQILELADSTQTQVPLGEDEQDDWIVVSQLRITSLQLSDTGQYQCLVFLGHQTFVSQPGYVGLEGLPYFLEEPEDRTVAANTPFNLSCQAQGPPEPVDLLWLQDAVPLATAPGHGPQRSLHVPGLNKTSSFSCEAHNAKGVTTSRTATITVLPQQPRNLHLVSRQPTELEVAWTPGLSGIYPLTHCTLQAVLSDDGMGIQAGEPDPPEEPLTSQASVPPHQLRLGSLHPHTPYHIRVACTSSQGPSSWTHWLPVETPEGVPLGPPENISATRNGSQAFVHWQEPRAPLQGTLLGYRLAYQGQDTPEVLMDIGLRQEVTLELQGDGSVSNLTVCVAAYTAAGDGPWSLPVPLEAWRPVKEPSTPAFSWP
Test: EIA: plate coated with Axl-Fc, Gas6_Flag detected with HRP anti-Flag M2 antibody, OD490

EC50: ~0.02 µg/mL
B1: human Gas6_Flag (human Growth Arrest Specific Gene 6 protein with a Flag epitope tag at the C-terminus) (ligand)
chain: ALLPAREATQFLRPRQRRAFQVFEEAKQGHLERECVEELCSREEAREVFENDPETDYFYPRYLDCINKYGSPYTKNSGFATCVQNLPDQCTPNPCDRKGTQACQDLMGNFFCLCKAGWGGRLCDKDVNECSQENGGCLQICHNKPGSFHCSCHSGFELSSDGRTCQDIDECADSEACGEARCKNLPGSYSCLCDEGFAYSSQEKACRDVDECLQGRCEQVCVNSPGSYTCHCDGRGGLKLSQDMDTCEDILPCVPFSVAKSVKSLYLGRMFSGTPVIRLRFKRLQPTRLVAEFDFRTFDPEGILLFAGGHQDSTWIVLALRAGRLELQLRYNGVGRVTSSGPVINHGMWQTISVEELARNLVIKVNRDAVMKIAVAGDLFQPERGLYHLNLTVGGIPFHEKDLVQPINPRLDGCMRSWNWLNGEDTTIQETVKVNTRMQCFSVTERGSFYPGSGFAFYSLDYMRTPLDVGTESTWEVEVVAHIRPAADTGVLFALWAPDLRAVPLSVALVDYHSTKKLKKQLVVLAVEHTALALMEIKVCDGQEHVVTVSLRDGEATLEVDGTRGQSEVSAAQLQERLAVLERHLRSPVLTFAGGLPDVPVTSAPVTAFYRGCMTLEVNRRLLDLDEAAYKHSDITAHSCPPVEPAAADYKDDDDK
notes: Expressed from full-length cDNA in HEK293 cells grown with vitamin K1 and purified on anti-Flag M2 resin; 2'; also called Gas6_tag
